± gives the uncertainty stated by the source.

Data on 167 variants can be found in the Human Domainome abundance scans (Beltran et al. 2025).

The chains are these.
B1: Tudor domain-containing protein 3, residues 554 to 611; numbered along this chain, Q9H7E2 (parent)
chain: KMWKPGDECFALYWEDNKFYRAEVEALHSSGMTAVVKFIDYGNYEEVLLSNIKPIQTE

The data set covers variants of B1. In words: abundance fitness (aPCA) (normalised: wild type 0, dead -1); higher = more abundant; growth selection in yeast, the domain comes from the species named. The conditions noted are these: Homo sapiens.
For the variant M32W, the abundance fitness was -0.137 ± 0.07. The figure for M32S is 0.02 ± 0.065. Turning to M32R, the abundance fitness was -0.009 ± 0.055.

For the variant M32H, the abundance fitness is 0.086 ± 0.11. The figure for M32P is -0.266 ± 0.081; for W14V it is -0.012 ± 0.057. On to W14S, for which the abundance fitness was found to be 0.134 ± 0.075. The figure for W14Y is -0.006 ± 0.12; for W14T it is 0.016 ± 0.075. For K18P, the abundance fitness is -0.949 ± 0.16. In the case of K18W, the abundance fitness was -0.736 ± 0.11. The figure for K18L is -0.254 ± 0.075; for K18Q it is -0.144 ± 0.086. Regarding K18N, the abundance fitness was -0.228 ± 0.11. As for K18S, the figure is -0.254 ± 0.067. As to K18T, the abundance fitness was -0.087 ± 0.087.

For the variant K18I, the abundance fitness was -0.273 ± 0.12. K18V: the abundance fitness is -0.255 ± 0.069. As to K18E, the abundance fitness is -0.179 ± 0.087.

K18F: the abundance fitness is -0.917 ± 0.26. The figure for K18R is -0.095 ± 0.056. As for K18A, the figure is -0.126 ± 0.089; as for K18C, -0.188 ± 0.08; as for K18M, -0.033 ± 0.084.

As to K18H, the abundance fitness is -0.179 ± 0.12. The figure for A26G is -0.068 ± 0.086. Regarding A26I, the abundance fitness was -0.16 ± 0.16.

A26W: the abundance fitness was -0.195 ± 0.12. In the case of A26F, the abundance fitness worked out at 0.101 ± 0.21. As for A26N, the figure is -0.079 ± 0.16. For the variant A26K, the abundance fitness worked out at 0.158 ± 0.17. With A26V, the abundance fitness was -0.128 ± 0.11. The figure for A26P is -0.897 ± 0.2; for A26L it is -0.041 ± 0.089. As to A26D, the abundance fitness was -0.165 ± 0.22. Take A26Y: the abundance fitness is -0.062 ± 0.21. Regarding A26C, the abundance fitness is -0.063 ± 0.15. For the variant A26T, the abundance fitness was 0.109 ± 0.17.

Consider A26R, for which the abundance fitness was 0.049 ± 0.083. As for A26M, the figure is -0.065 ± 0.14; as for A26Q, -0.322 ± 0.2.

Regarding A26H, the abundance fitness was -0.031 ± 0.21. As for A26E, the abundance fitness turned out to be 0.211 ± 0.17. The figure for A26S is 0.106 ± 0.095; for S29R it is -0.133 ± 0.053. In the case of S29L, the abundance fitness is -0.125 ± 0.06. The figure for S29F is -0.186 ± 0.1. With S29E, the abundance fitness was -0.008 ± 0.081. In the case of S29I, the abundance fitness is -0.05 ± 0.097. S29C: the abundance fitness is -0.116 ± 0.079. For S29K, the abundance fitness is -0.028 ± 0.082. As for S29P, the figure is -0.03 ± 0.088; as for S29Y, -0.061 ± 0.092; as for S29Q, -0.11 ± 0.1.

Regarding S29G, the abundance fitness is -0.107 ± 0.057. As for S29W, the figure is -0.368 ± 0.076. The figure for S29V is 0.118 ± 0.064.

For the variant S29A, the abundance fitness worked out at 0.114 ± 0.075. Take S29N: the abundance fitness was -0.062 ± 0.12. With S29M, the abundance fitness is -0.009 ± 0.084. For S29D, the abundance fitness amounted to 0.014 ± 0.097. On to S29T, for which the abundance fitness is -0.012 ± 0.074. The figure for S29H is -0.05 ± 0.14. As for Y20A, the figure is -0.228 ± 0.068. As for Y20M, the figure is -0.297 ± 0.097.

With Y20F, the abundance fitness is -0.807 ± 0.17. As to Y20D, the abundance fitness is -1.01 ± 0.17.

Regarding Y20S, the abundance fitness was -0.59 ± 0.083. The figure for Y20K is 0.072 ± 0.091. As for Y20L, the figure is -0.171 ± 0.059; as for Y20W, -0.305 ± 0.073; as for Y20P, -0.918 ± 0.14. The figure for Y20H is 0.081 ± 0.12. For the variant Y20I, the abundance fitness is -0.347 ± 0.098. Consider Y20T, for which the abundance fitness was -0.871 ± 0.12. On to Y20E, for which the abundance fitness was -0.516 ± 0.09. The figure for Y20N is -0.68 ± 0.18; for Y20C it is -0.321 ± 0.12; for Y20G it is -0.732 ± 0.072. F19P: the abundance fitness was -0.81 ± 0.13. Regarding F19H, the abundance fitness was -0.457 ± 0.17. The figure for F19L is -0.472 ± 0.08; for F19Q it is -0.599 ± 0.12; for F19Y it is -0.123 ± 0.14. The figure for F19G is -0.925 ± 0.077; for F19T it is -0.747 ± 0.12; for F19A it is -0.831 ± 0.087. As for F19M, the abundance fitness was -0.386 ± 0.13. As for F19V, the abundance fitness is -0.756 ± 0.082. F19D: the abundance fitness was -0.881 ± 0.15. Consider F19C, for which the abundance fitness was -1.02 ± 0.14. As for F19I, the figure is -0.649 ± 0.27; as for F19S, -0.703 ± 0.086.

With F19K, the abundance fitness was -0.85 ± 0.16. Turning to F19W, the abundance fitness was -0.008 ± 0.081. The figure for F19E is -0.706 ± 0.099; for E23F it is -0.1 ± 0.11. As for E23W, the figure is -0.176 ± 0.08; as for E23G, -0.596 ± 0.075; as for E23M, -0.005 ± 0.1.

For the variant E23N, the abundance fitness came out at 0.059 ± 0.097. As for E23R, the figure is 0.032 ± 0.057; as for E23L, -0.225 ± 0.062.

E23Q: the abundance fitness was -0.103 ± 0.11. As for E23I, the figure is 0.143 ± 0.1; as for E23P, -0.838 ± 0.11. The figure for E23C is -0.034 ± 0.079; for E23T it is -0.004 ± 0.07; for E23H it is 0.071 ± 0.088. Regarding E23A, the abundance fitness is -0.257 ± 0.071. As for E23S, the figure is 0.013 ± 0.059. The figure for V24L is -0.215 ± 0.059; for V24F it is -0.22 ± 0.096. On to V24C, for which the abundance fitness was -0.949 ± 0.13. V24D: the abundance fitness was -1.03 ± 0.28. The figure for V24Y is -0.814 ± 0.15. The figure for V24A is -0.939 ± 0.13. The figure for V24W is -0.811 ± 0.093; for V24I it is -0.027 ± 0.13; for V24P it is -0.906 ± 0.11. As to V24M, the abundance fitness is -0.726 ± 0.1. As for V24T, the figure is -0.863 ± 0.11; as for V24H, -0.847 ± 0.18.

With V24E, the abundance fitness was -1.04 ± 0.19. As for V24R, the figure is -0.773 ± 0.061; as for V24G, -0.994 ± 0.094. The figure for V24K is -0.849 ± 0.17; for V24N it is -0.825 ± 0.15; for V24Q it is -0.986 ± 0.12. Consider V24S, for which the abundance fitness is -0.751 ± 0.075. As for E25N, the figure is -0.111 ± 0.13; as for E25G, -0.315 ± 0.063; as for E25I, 0.011 ± 0.11. Turning to E25M, the abundance fitness is -0.025 ± 0.078. For the variant E25Q, the abundance fitness was 0.077 ± 0.075. Regarding E25C, the abundance fitness was -0.019 ± 0.097. For E25Y, the abundance fitness amounted to 0.046 ± 0.12. Regarding E25S, the abundance fitness amounted to 0.022 ± 0.06.

E25R: the abundance fitness is -0.019 ± 0.054. Take E25K: the abundance fitness amounted to 0.051 ± 0.1. As for E25L, the abundance fitness was -0.038 ± 0.06. Turning to E25H, the abundance fitness was -0.039 ± 0.1. For E25W, the abundance fitness is -0.101 ± 0.074.

For the variant E25A, the abundance fitness was found to be 0.062 ± 0.079. The figure for E25F is -0.041 ± 0.098. The figure for E25V is 0.013 ± 0.063; for E25P it is -0.659 ± 0.11; for E25D it is 0.027 ± 0.14. For the variant A22P, the abundance fitness is -0.976 ± 0.14. The figure for A22T is -0.865 ± 0.14; for A22C it is -0.488 ± 0.12; for A22R it is -0.756 ± 0.076. Take A22K: the abundance fitness is -1.03 ± 0.14.

With A22D, the abundance fitness was -0.93 ± 0.13. As to A22W, the abundance fitness was -0.95 ± 0.12. As for A22V, the figure is -0.845 ± 0.069; as for A22M, -0.908 ± 0.16; as for A22H, -0.936 ± 0.21. As for A22I, the abundance fitness is -0.923 ± 0.36.

Consider A22Y, for which the abundance fitness is -0.844 ± 0.27. The figure for A22S is -0.637 ± 0.087; for A22G it is -0.351 ± 0.06; for A22L it is -0.857 ± 0.093. The figure for A22Q is -0.955 ± 0.15. Consider A22E, for which the abundance fitness is -1.04 ± 0.13. A22F: the abundance fitness was -0.977 ± 0.25. As for A22N, the figure is -0.986 ± 0.3.
